Data set [1] concerns the molecule itself. The experiment in a line: SEC-MALS. Background: Size exclusion chromatography separates by hydrodynamic size, large species first.
Data set [2] deals with the molecule itself. The experiment in a line: SEC-MALS. The source holds these as a separate data set.

Read-outs that look alike come from different tables or passages of the source.

In general, stoichiometry N refers to the number of molecules, sites or subunits per partner or assembly.

B1: WT clathrin hub (bovine clathrin heavy chain aa1074-1675) (domain or fragment, UniProt P49951 1074-1675, looked up)
chain: KFDVNTSAVQVLIEHIGNLDRAYEFAERCNEPAVWSQLAKAQLQKGMVKEAIDSYIKADDPSSYMEVVQAANTSGNWEELVKYLQMARKKARESYVETELIFALAKTNRLAELEEFINGPNNAHIQQVGDRCYDEKMYDAAKLLYNNVSNFGRLASTLVHLGEYQAAVDGARKANSTRTWKEVCFACVDGKEFRLAQMCGLHIVVHADELEELINYYQDRGYFEELITMLEAALGLERAHMGMFTELAILYSKFKPQKMREHLELFWSRVNIPKVLRAAEQAHLWAELVFLYDKYEEYDNAIITMMNHPTDAWKEGQFKDIITKVANVELYYRAIQFYLEFKPLLLNDLLMVLSPRLDHTRAVNYFSKVKQLPLVKPYLRSVQNHNNKSVNESLNNLFITEEDYQALRTSIDAYDNFDNISLAQRLEKHELIEFRRIAAYLFKGNNRWKQSVELCKKDSLYKDAMQYASESKDTELAEELLQWFLQEEKRECFGACLFTCYDLLRPDVVLETAWRHNIMDFAMPYFIQVMKEYLTKVDKLDASESLRKEEEQATETQPIVYGQPQLMLTAGPSVAVPPQAPFGYGYTAPAYGQPQPGFGYSM
For B1, the “stoichiometry N” value in the data set “SEC-MALS [1]” was 3.

B2: C1573A clathrin hub (bovine clathrin heavy chain aa1074-1675, C1573A) (domain or fragment, UniProt P49951 1074-1675, looked up)
chain: KFDVNTSAVQVLIEHIGNLDRAYEFAERCNEPAVWSQLAKAQLQKGMVKEAIDSYIKADDPSSYMEVVQAANTSGNWEELVKYLQMARKKARESYVETELIFALAKTNRLAELEEFINGPNNAHIQQVGDRCYDEKMYDAAKLLYNNVSNFGRLASTLVHLGEYQAAVDGARKANSTRTWKEVCFACVDGKEFRLAQMCGLHIVVHADELEELINYYQDRGYFEELITMLEAALGLERAHMGMFTELAILYSKFKPQKMREHLELFWSRVNIPKVLRAAEQAHLWAELVFLYDKYEEYDNAIITMMNHPTDAWKEGQFKDIITKVANVELYYRAIQFYLEFKPLLLNDLLMVLSPRLDHTRAVNYFSKVKQLPLVKPYLRSVQNHNNKSVNESLNNLFITEEDYQALRTSIDAYDNFDNISLAQRLEKHELIEFRRIAAYLFKGNNRWKQSVELCKKDSLYKDAMQYASESKDTELAEELLQWFLQEEKRECFGACLFTAYDLLRPDVVLETAWRHNIMDFAMPYFIQVMKEYLTKVDKLDASESLRKEEEQATETQPIVYGQPQLMLTAGPSVAVPPQAPFGYGYTAPAYGQPQPGFGYSM
B2: the “stoichiometry N” value was approximately 3 in the data set “SEC-MALS [2]” and approximately 2 in the data set “SEC-MALS [1]”.
